Results from the supplement of paper PMC7877785.
± gives the uncertainty stated by the source.

Test: self-splicing fitness, log relative to wild type (ln ratio); higher = more splicing; Tetrahymena group I intron in knt gene, E. coli kanamycin selection, DiMSum; sequences stand for … in CUCUCU…GGAGGGAAAAGUUAUCAGGCAUGCACCUGGUAGCUAGUCUUUAAACCAAUAGAUUGCAUCGGUUUAAAAGGCAAGACCGUCAAAUUGCGGGAAAGGGGUCAACAGCCGUUCAGUACCAAGUCUCAGGGGAAACUUUGAGAUGGCCUUGCAAAGGGUAUGGUAAUAAGCUGACGGACAUGGUCCUAACCACGCAGCCAAGUCCUAAGUCAACAGAUCUUCUGUUGAUAUGGAUGCAGUUCACAGACUAAAUGUCGGUCGGGGAAGAUGUAUUCUUCUCAUAAGAUAUAGUCGGACCUCUCCUUAAUGGGAGCUAGCGGAUGAAGUGAUGCAACACUGGAGCCGCUGGGAACUAAUUUGUAUGCGAAAGUAUAUUGAUUAGUUUUGGAGUACUCGUGGUCG
Outline: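 A randomised library covering all eight P1ex-region intron nucleotides was built with the intron in the knt kanamycin-resistance gene on pET-22b(+) and held in E. coli BL21(DE3). Cells were grown overnight at 37°C or 30°C on LB agar, with or without 25 μg/mL kanamycin, plus 100 μg/mL carbenicillin, 50 μM IPTG and 0.2% rhamnose, and pooled colonies were amplicon-sequenced on an Illumina HiSeq 2500. DiMSum fitness is the error-weighted combination of wild-type-normalised replicate fold changes, kanamycin versus none.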

Sequence	self-splicing fitness (ln) (30 °C)	self-splicing fitness (ln) (37 °C)
CCGUAGCAAUAUUACGAUGA	-1.48 ± 0.11	-1.13 ± 0.12
CCGUAGCAAUAUUACGCAUA	-2.31 ± 0.19	-2.12 ± 0.33
CCGUAGCAAUAUUACGCCGG	-2.94 ± 0.49	–
CCGUAGCAAUAUUACGCCGU	-3 ± 0.44	-2.16 ± 0.27
CCGUAGCAAUAUUACGCCUC	-1.88 ± 0.44	-1.82 ± 0.35
CCGUAGCAAUAUUACGCGAU	-2.48 ± 0.22	-3.66 ± 0.35
CCGUAGCAAUAUUACGCGCG	-2.15 ± 0.17	-0.999 ± 0.18
CCGUAGCAAUAUUACGCGGA	-2.85 ± 0.26	-3.13 ± 0.26
CCGUAGCAAUAUUACGCGUA	-3.69 ± 0.3	-2.06 ± 0.31
CCGUAGCAAUAUUACGGACG	-1.88 ± 0.26	–
CCGUAGCAAUAUUACGGAGA	-3.01 ± 0.28	-2.32 ± 0.38
CCGUAGCAAUAUUACGGCUG	-2.46 ± 0.21	-1.19 ± 0.17
CCGUAGCAAUAUUACGUCUC	-3.43 ± 0.21	-3.67 ± 0.31
CCGUAGCAAUAUUACGUUCU	-3.34 ± 0.28	-3.36 ± 0.42
CCUAAGCAAUAUUACGACCA	-3.19 ± 0.21	-1.46 ± 0.17
CCUAAGCAAUAUUACGACUG	-1.74 ± 0.15	-0.483 ± 0.14
CCUAAGCAAUAUUACGACUU	-4.37 ± 0.17	-2.4 ± 0.13
CCUAAGCAAUAUUACGAGUA	-2.5 ± 0.16	-1.98 ± 0.18
CCUAAGCAAUAUUACGAUGC	-3.49 ± 0.17	-1.88 ± 0.16
CCUAAGCAAUAUUACGCAAG	-4.71 ± 0.46	–
CCUAAGCAAUAUUACGCACG	-3.1 ± 0.41	-1.46 ± 0.23
CCUAAGCAAUAUUACGCAGG	-4.8 ± 0.29	-2.37 ± 0.25
CCUAAGCAAUAUUACGCCAC	-2.75 ± 0.22	–
CCUAAGCAAUAUUACGCGGG	-3.96 ± 0.21	-2.68 ± 0.21
CCUAAGCAAUAUUACGCUGG	-4.1 ± 0.32	-2.48 ± 0.25

Sequence	self-splicing fitness (ln) (30 °C)	self-splicing fitness (ln) (37 °C)
CCUAAGCAAUAUUACGGAAG	-2.12 ± 0.11	-0.751 ± 0.1
CCUAAGCAAUAUUACGGAGU	-3 ± 0.17	-2.55 ± 0.17
CCUAAGCAAUAUUACGGGCG	-2.15 ± 0.11	-0.76 ± 0.1
CCUAAGCAAUAUUACGGUAU	-3.72 ± 0.23	-1.85 ± 0.24
CCUAAGCAAUAUUACGUAAA	-3.49 ± 0.24	-2.43 ± 0.16
CCUAAGCAAUAUUACGUGGU	-4.74 ± 0.32	-3.13 ± 0.25
CCUAAGCAAUAUUACGUUCU	-2.57 ± 0.16	-3.16 ± 0.34
CCUAAGCAAUAUUACGUUUG	-4.59 ± 0.18	-3.16 ± 0.16
CCUAAGCAAUAUUACGUUUU	-3.89 ± 0.18	-1.3 ± 0.13
CCUCAGCAAUAUUACGAACA	-4.3 ± 0.42	-1.46 ± 0.41
CCUCAGCAAUAUUACGAAUU	-2.53 ± 0.18	-2.13 ± 0.2
CCUCAGCAAUAUUACGAGCG	-2 ± 0.094	-1.05 ± 0.088
CCUCAGCAAUAUUACGCAAC	-2.21 ± 0.3	-1.83 ± 0.4
CCUCAGCAAUAUUACGCAAU	-3.87 ± 0.2	-2.01 ± 0.18
CCUCAGCAAUAUUACGCGAU	-4.95 ± 0.38	-2.63 ± 0.22
CCUCAGCAAUAUUACGCUAU	-4.26 ± 0.43	-2.22 ± 0.28
CCUCAGCAAUAUUACGGAGC	-4.55 ± 0.3	-2.91 ± 0.19
CCUCAGCAAUAUUACGGCUG	-3.84 ± 0.21	-2.36 ± 0.18
CCUCAGCAAUAUUACGUAGU	-2.16 ± 0.066	-0.762 ± 0.075
CCUCAGCAAUAUUACGUCGG	-3.36 ± 0.16	-2.59 ± 0.19
CCUCAGCAAUAUUACGUGCC	-2.39 ± 0.17	-2.39 ± 0.31
CCUCAGCAAUAUUACGUUGG	-3.17 ± 0.13	-3.24 ± 0.21
CCUCAGCAAUAUUACGUUUG	-1.46 ± 0.093	-2.15 ± 0.14
CCUGAGCAAUAUUACGAAAG	-2.39 ± 0.22	-2.08 ± 0.23
CCUGAGCAAUAUUACGAAUG	-2.21 ± 0.18	-1.7 ± 0.19

Sequence	self-splicing fitness (ln) (30 °C)	self-splicing fitness (ln) (37 °C)
CCUGAGCAAUAUUACGAGAG	-3.7 ± 0.26	-0.438 ± 0.1
CCUGAGCAAUAUUACGAGUU	-3.99 ± 0.39	–
CCUGAGCAAUAUUACGAUUA	–	-2.35 ± 0.33
CCUGAGCAAUAUUACGCAUU	-4.02 ± 0.25	-1.86 ± 0.23
CCUGAGCAAUAUUACGCGCA	-2.95 ± 0.34	-1.11 ± 0.37
CCUGAGCAAUAUUACGCGCG	-3.05 ± 0.21	-3.29 ± 0.26
CCUGAGCAAUAUUACGCGGA	-2.9 ± 0.25	-1.17 ± 0.18
CCUGAGCAAUAUUACGCUGA	-2.59 ± 0.31	-2.56 ± 0.35
CCUGAGCAAUAUUACGGAUA	-3.44 ± 0.32	-1.92 ± 0.23
CCUGAGCAAUAUUACGGCUG	-4.49 ± 0.31	-1.76 ± 0.2
CCUGAGCAAUAUUACGGCUU	-3.73 ± 0.29	-3.02 ± 0.27
CCUGAGCAAUAUUACGGUAC	-4.34 ± 0.34	–
CCUGAGCAAUAUUACGGUAU	-3.02 ± 0.16	-2.61 ± 0.21
CCUGAGCAAUAUUACGGUCG	-3.95 ± 0.19	-2.97 ± 0.19
CCUGAGCAAUAUUACGGUGA	-4 ± 0.3	-2.64 ± 0.26
CCUGAGCAAUAUUACGGUUA	-2.13 ± 0.22	-2.96 ± 0.22
CCUGAGCAAUAUUACGUCAU	-3.5 ± 0.15	-2.68 ± 0.18
CCUGAGCAAUAUUACGUGAC	-3.82 ± 0.25	-2.17 ± 0.22
CCUGAGCAAUAUUACGUGGU	-3.09 ± 0.16	-2.94 ± 0.21
CCUGAGCAAUAUUACGUGUA	-3.53 ± 0.2	-2.16 ± 0.2
CCUGAGCAAUAUUACGUUGU	-3.57 ± 0.2	-2.73 ± 0.23
CCUGAGCAAUAUUACGUUUG	-3.6 ± 0.22	-2.21 ± 0.18
CCUGAGCAAUAUUACGUUUU	-3.74 ± 0.23	-2.81 ± 0.25
CCUUAGCAAUAUUACGACUC	-3.05 ± 0.15	-2.49 ± 0.2
CCUUAGCAAUAUUACGAGAA	-2.19 ± 0.38	-2.79 ± 0.47

Sequence	self-splicing fitness (ln) (30 °C)	self-splicing fitness (ln) (37 °C)
CCUUAGCAAUAUUACGAGCU	-4 ± 0.33	-2.74 ± 0.29
CCUUAGCAAUAUUACGAUAA	-3.53 ± 0.25	-2.88 ± 0.27
CCUUAGCAAUAUUACGAUCU	-4.14 ± 0.39	-2.88 ± 0.2
CCUUAGCAAUAUUACGAUGU	-2.14 ± 0.13	-1.49 ± 0.16
CCUUAGCAAUAUUACGAUUA	-2.28 ± 0.28	-2.61 ± 0.32
CCUUAGCAAUAUUACGCAAG	–	-3.09 ± 0.33
CCUUAGCAAUAUUACGCAAU	-3.51 ± 0.23	-1.47 ± 0.23
CCUUAGCAAUAUUACGCAUC	–	-2.77 ± 0.48
CCUUAGCAAUAUUACGCCAU	-2.87 ± 0.48	-1.57 ± 0.29
CCUUAGCAAUAUUACGCCCU	-1.89 ± 0.48	–
CCUUAGCAAUAUUACGCGAC	-3.16 ± 0.26	-2.12 ± 0.28
CCUUAGCAAUAUUACGCGAU	–	-3.16 ± 0.22
CCUUAGCAAUAUUACGCGUG	-2.33 ± 0.12	-2.61 ± 0.12
CCUUAGCAAUAUUACGCUUA	-3.61 ± 0.34	-2.66 ± 0.33
CCUUAGCAAUAUUACGGACG	-1 ± 0.13	-0.586 ± 0.17
CCUUAGCAAUAUUACGGCAA	-3.57 ± 0.33	-2.54 ± 0.24
CCUUAGCAAUAUUACGGCGC	-2.98 ± 0.27	–
CCUUAGCAAUAUUACGGGCC	-2.94 ± 0.31	-2.54 ± 0.35
CCUUAGCAAUAUUACGGUCG	-0.919 ± 0.092	-0.755 ± 0.097
CCUUAGCAAUAUUACGGUUA	-3.48 ± 0.24	-2.24 ± 0.16
CCUUAGCAAUAUUACGUACC	-3.04 ± 0.45	–
CCUUAGCAAUAUUACGUCGC	-3.07 ± 0.4	-2.66 ± 0.38
CCUUAGCAAUAUUACGUCGG	-3.99 ± 0.26	-1.37 ± 0.15
CCUUAGCAAUAUUACGUGCA	-3.43 ± 0.23	-3.76 ± 0.28
